In data set [1] the target is T1, in vitro translated, 35S-incorporated ER (UniProt P03372 1-595, 35S-incorporated (in vitro translated)).
T1 construct: also called ERα
T1 sequence (looked up): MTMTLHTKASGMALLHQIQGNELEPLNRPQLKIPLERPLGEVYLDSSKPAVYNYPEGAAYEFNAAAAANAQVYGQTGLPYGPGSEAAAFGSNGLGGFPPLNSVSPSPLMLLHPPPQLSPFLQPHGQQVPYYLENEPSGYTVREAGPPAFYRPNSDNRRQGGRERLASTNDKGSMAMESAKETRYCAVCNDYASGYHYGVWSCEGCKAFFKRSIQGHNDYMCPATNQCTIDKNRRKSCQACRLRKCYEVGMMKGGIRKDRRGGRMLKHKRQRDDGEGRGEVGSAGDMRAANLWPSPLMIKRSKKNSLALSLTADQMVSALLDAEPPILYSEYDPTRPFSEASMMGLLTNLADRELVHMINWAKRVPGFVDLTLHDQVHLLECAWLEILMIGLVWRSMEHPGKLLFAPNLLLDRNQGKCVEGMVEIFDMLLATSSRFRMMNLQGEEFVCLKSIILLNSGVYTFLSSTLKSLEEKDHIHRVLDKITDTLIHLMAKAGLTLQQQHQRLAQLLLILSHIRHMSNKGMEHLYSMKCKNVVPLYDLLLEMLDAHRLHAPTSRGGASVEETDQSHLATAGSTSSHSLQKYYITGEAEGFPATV
In words: GST pull-down with or without E2 or Tamoxifen (FIG. 29).

For data set [2], the target named is T2, HER2, endogenous in MCF-7 cells (human, UniProt P04626 23-1255).
T2 construct: also called HER-2/neu
In words: immunoprecipitation and immunoblot, MCF-7 cells. On the procedure:
In Panel B, immunoprecipitation of E or T treated MCF-7 cells was performed followed by immunoblot analysis.
On the technique in general: Immunoblotting shows a protein as a band on a membrane.

The target in a further data set is T3, GST-RhoGDI, P52565.
T3 chain: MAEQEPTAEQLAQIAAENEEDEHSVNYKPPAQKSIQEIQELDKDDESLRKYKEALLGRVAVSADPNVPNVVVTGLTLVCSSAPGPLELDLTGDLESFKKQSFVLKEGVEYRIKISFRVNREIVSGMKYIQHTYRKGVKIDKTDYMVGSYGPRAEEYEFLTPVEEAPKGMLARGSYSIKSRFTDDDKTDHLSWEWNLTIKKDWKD

The target of a further data set is T4, GST-ER, P03372.
T4 chain: T1 sequence (looked up)

Data set [3] has as its target T5, GST-RhoGDI (aa:1-81), P52565.
T5 chain: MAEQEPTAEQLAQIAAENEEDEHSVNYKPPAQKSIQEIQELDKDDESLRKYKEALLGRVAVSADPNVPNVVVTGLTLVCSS

B1: in vitro translated RhoGDI (other, UniProt P52565 1-204, looked up)
chain: T3 chain
As to B1, the binding result in data set [1] is “no binding”.

B2: EBP50 (ezrin binding protein 50), endogenous in MCF-7 cells (other, human, UniProt O14745 2-358, looked up)
chain: SADAAAGAPLPRLCCLEKGPNGYGFHLHGEKGKLGQYIRLVEPGSPAEKAGLLAGDRLVEVNGENVEKETHQQVVSRIRAALNAVRLLVVDPETDEQLQKLGVQVREELLRAQEAPGQAEPPAAAEVQGAGNENEPREADKSHPEQRELRPRLCTMKKGPSGYGFNLHSDKSKPGQFIRSVDPDSPAEASGLRAQDRIVEVNGVCMEGKQHGDVVSAIRAGGDETKLLVVDRETDEFFKKCRVIPSQEHLNGPLPVPFTNGEIQKENSREALAEAALESPRPALVRSASSDTSEELNSQDSPPKQDSTAPSSTSSSDPILDFNISLAMAKERAHQKRSSKRAPQMDWSKKNELFSNL
notes: also called NHE-RF; SLC9A3R1
In the case of B2, in data set [2], the binding result was “binds”.

B3: GST-p300 HAT (protein)
chain: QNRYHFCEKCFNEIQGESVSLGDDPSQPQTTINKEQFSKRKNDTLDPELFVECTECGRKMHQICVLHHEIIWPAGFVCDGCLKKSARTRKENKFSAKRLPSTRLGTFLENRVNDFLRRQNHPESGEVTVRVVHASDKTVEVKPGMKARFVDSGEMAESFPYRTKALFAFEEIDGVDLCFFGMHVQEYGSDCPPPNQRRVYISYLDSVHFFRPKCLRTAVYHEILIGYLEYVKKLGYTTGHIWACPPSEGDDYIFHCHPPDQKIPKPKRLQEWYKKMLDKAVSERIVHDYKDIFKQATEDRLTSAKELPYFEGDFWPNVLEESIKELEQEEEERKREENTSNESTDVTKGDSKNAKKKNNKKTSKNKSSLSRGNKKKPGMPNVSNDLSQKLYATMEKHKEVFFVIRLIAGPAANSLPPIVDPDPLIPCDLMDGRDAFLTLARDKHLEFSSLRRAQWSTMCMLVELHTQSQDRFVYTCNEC
As to B3, the “in vitro acetylation assay (14C-acetyl-CoA, SDS-PAGE, autoradiography)” value with GST-RhoGDI, P52565 is reported as “RhoGDI, like ERα, is acetylated by p300”; in data set [3] it was “The result indicates that N-terminal of RhoGDI contains acetylation site(s)”. Moreover, the “competitive in vitro acetylation assay” value in the data set with GST-ER, P03372 is reported as “Purified GST-ER was acetylated by GST-p300HAT in the presence of increasing amount of GST-RhoGDI”.
